Test results: patent US7960349B2 (Bristol-Myers Squibb Company, priority 2006, dated 2011)
*1 amine or outer side, *2 acyl side, *3 side chain or, on linkers, in order; H or OH if unused. Where a SMILES comes first, the peptide text is derived from it. Primed or numbered codes have the meaning given here. Where no end group is shown, it is not given here. [ ]: non-standard residue; d: D form. The star is where a group is joined. ξ: configuration not given here. X1 = 4‑(2′-methylphenyl)‑3‑pyridylalanine, Cc1ccccc1-c1ccncc1C[C@H](N[*:1])C(=O)[*:2]; Ala(6-(2-MePh)pyridin-3-yl) = Cc1ccccc1-c1ccc(C[C@H](N)C(=O)O)cn1; Phe(4-(2-Et-4-HO-Ph)) = CCc1cc(O)ccc1-c1ccc(C[C@H](N)C(=O)O)cc1; Bip(2'-Et-4'-OMe) = CCc1cc(OC)ccc1-c1ccc(C[C@H](N)C(=O)O)cc1; IMeOp = 3-(1H-imidazol-4-yl)-2-methoxypropanoyl; αMePhe(2-F) = C[C@](N)(Cc1ccccc1F)C(=O)O; ξαMePhe(2-F) = CC(N)(Cc1ccccc1F)C(=O)O; αMeP = C[C@@]1(C(=O)O)CCCN1; ξαMeP = CC1(C(=O)O)CCCN1; Moc = COC(=O)*

T1: Mouse GLP-1 Receptor (Mus musculus, UniProt O35659)
T1 construct: expressed in transfected cells; host or cells: CHO cells
T1 sequence (O35659 22-463): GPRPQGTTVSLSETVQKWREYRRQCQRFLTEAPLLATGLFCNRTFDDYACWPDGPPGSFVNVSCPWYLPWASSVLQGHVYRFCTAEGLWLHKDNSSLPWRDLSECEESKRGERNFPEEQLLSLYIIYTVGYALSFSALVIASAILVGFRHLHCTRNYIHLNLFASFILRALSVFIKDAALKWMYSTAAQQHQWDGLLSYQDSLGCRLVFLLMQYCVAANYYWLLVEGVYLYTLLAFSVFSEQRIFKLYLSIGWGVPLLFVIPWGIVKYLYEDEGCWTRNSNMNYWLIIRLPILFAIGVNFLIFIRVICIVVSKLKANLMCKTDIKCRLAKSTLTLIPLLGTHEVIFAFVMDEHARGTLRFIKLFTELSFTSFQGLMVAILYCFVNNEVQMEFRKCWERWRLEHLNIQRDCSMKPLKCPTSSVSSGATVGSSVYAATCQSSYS

T2: Mouse GLP-1 Receptor (mouse, UniProt O35659 22-463)
T2 sequence (looked up): T1 sequence (O35659 22-463)

B1: Compound of SEQ ID NO: 158 (peptide)
peptide: Moc-H[αMeP]EGT[αMePhe(2-F)]TSD[Phe(4-(2-Et-4-HO-Ph))][X1]-NH2
B2: Compound of SEQ ID NO: 173 (or 174)* (peptide)
peptide: [IMeOp][αMeP]EGT[αMePhe(2-F)]TSD[Phe(4-(2-Et-4-HO-Ph))][X1]-NH2
modifications: also: IMeOp configuration (R or S) not determined

Legend:
[1] = molecular target: T3, Human GLP-1 Receptor (Homo sapiens, UniProt P43220); assay: Cyclic AMP determination in CHO cells expressing human GLP-1 receptor; format: cell-based; settings: human GLP-1 receptor
T3 construct: Full-length human glucagon-like peptide 1 receptor was stably expressed in CHO-K1 cells; expressed in transfected cells; host or cells: CHO-K1 (clone CHO-GLP1R-19)
T3 sequence (P43220 24-463): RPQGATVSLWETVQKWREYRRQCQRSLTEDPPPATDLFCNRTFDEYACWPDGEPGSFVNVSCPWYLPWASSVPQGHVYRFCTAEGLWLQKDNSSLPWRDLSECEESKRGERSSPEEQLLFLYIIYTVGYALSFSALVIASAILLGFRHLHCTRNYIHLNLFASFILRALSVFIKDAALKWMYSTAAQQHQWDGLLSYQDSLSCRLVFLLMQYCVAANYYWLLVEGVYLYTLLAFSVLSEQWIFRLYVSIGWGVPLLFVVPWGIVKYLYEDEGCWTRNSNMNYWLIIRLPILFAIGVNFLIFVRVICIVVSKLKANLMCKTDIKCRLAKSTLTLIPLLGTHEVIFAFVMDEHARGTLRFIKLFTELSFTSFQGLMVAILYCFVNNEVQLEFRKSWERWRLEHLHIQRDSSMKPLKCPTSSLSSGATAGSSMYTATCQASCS
Method: (§1) CHO-GLP-1R-19 cells (20,000 in 100 μl of media) were plated into each well of a 96-well tissue culture microtiter plate and incubated overnight in a 5% CO2 atmosphere at 37° C. On the day of the assay, cells were washed once with 100 μl of phosphate-buffered saline (PBS). A Biomek 2000 was used to serially dilute all peptides prior to beginning the assay. Serial dilutions were carried out in 100% DMSO.
(§2) 50 μl of each cAMP standard was added by hand and 70 μl of mix reagent (Amersham cAMP SPA kit) was added using the multidrop. […] This standard curve was used to convert CPM to pmol of cAMP.
(§3) Cell plates and peptide plates were loaded onto the Platemate. The media was aspirated from the wells and discarded. 100 uL per well of the peptide/buffer mixture were then added from the peptide plates to initiate the assay. After 30 min. of incubation the peptide/buffer was removed and 50 uL of the lysis reagent 1 solution was added per well. The plate was kept for one hour at RT or overnight if refrigerated and sealed.
(§4) Dose dependence for Compounds was determined at half-log concentrations in duplicate. […] A standard curve was determined using known amounts of cyclic AMP. […] The data were analyzed by nonlinear regression curve fitting (4 parameter sigmoidal dose-response curve) to determine the EC50 of the compounds.

[2] = molecular target: T1, Mouse GLP-1 Receptor; assay: Stimulation of cAMP synthesis in CHO cells expressing mouse GLP-1 receptor; format: cell-based
Method: as §1, §2, §3, §4

[3] = tested on: ob/ob mice; assay: Intraperitoneal glucose tolerance test (ipGTT) in ob/ob mice after sc injection; format: in vivo, mouse; settings: 10 nmol/kg sc; relative to vehicle-treated group
Method: Peptides were dissolved in an appropriate vehicle at a concentration in nmol/ml equivalent to the dose that was to be administered in nmol/kg so that each mouse would receive the same volume/weight of dosing solution. Male C57BL/6-ob/ob mice (10 weeks old) were randomized into groups of 6 mice per group based on fed plasma glucose and body weight. After an overnight fast, mice were weighed and placed in the experimental lab. After 30 min in the environment, the mice were bled via tail tip at −30 min and immediately injected subcutaneously (sc) with vehicle or the peptide dissolved in vehicle (0.1 ml solution/100 g body weight). At time 0 the mice were bled and then injected intraperitoneally with 50% glucose (2 g/kg) to initiate the intraperitoneal glucose tolerance test (ipGTT). The mice were bled 30, 60, 120 and 180 min after the glucose injection. Blood samples were drawn into potassium EDTA, placed on ice during the study and subsequently centrifuged for 10 min at 3000 rpm at 4° C. Plasma samples were diluted 11-fold for glucose analysis in the Cobas System. Another 5 μl plasma sample was diluted 5-fold with 20 μl of Sample Diluent (Insulin ELISA assay kit, Crystal Chem. Inc.) and stored at −20° C. for subsequent analysis using the Ultra Sensitive Mouse Insulin ELISA kit (Crystal Chem Inc.).

[4] = Dog pharmacokinetic study; format: in vivo; settings: sc 67 μg/kg; vehicle propylene glycol/pH 7.4 phosphate buffer (1:1)
Method: The pharmacokinetic parameters of the Compounds of SEQ ID NO: 9, 118, 151 and 158 were determined in male beagle dogs (n=3-4, 14±1 kg). Following an overnight fast, each animal received the Compounds of SEQ ID NO: 9, 118, 151 and 158 either as an intravenous bolus via femoral vein (67 μg/kg) or by subcutaneous injection given at near the shoulder blades (67 μg/kg). Each animal received both intravenous and subcutaneous doses with a one-week washout between doses following a crossover design. The dosing vehicle for both routes of administration was propylene glycol:pH 7.4 phosphate buffer (50:50) or 0.2 M Tris (pH 8.0). Serial blood samples were collected in EDTA-containing microcentrifuge tubes at predose, 0.083, 0.25, 0.5, 0.75, 1, 2, 4, 6, 8, 24, and 30 hours post-dose after intravenous administration; at predose, 0.25, 0.5, 0.75, 1, 2, 4, 6, 8, 24, and 30 hours post-dose after subcutaneous administration. Approximately 0.3 mL of blood was collected at each time point. Blood samples were immediately centrifuged at 4° C. The obtained plasma was frozen with dry ice and stored at −20° C. Plasma drug levels were determined using the LC-MS/MS assay described below.
Plasma samples from the in vivo dog study were prepared for analysis by precipitating plasma proteins with two volumes of AcCN containing an internal standard. The samples were vortex mixed and the precipitated proteins were removed by centrifugation. The resulting supernatants were transferred to a 96-well plate and 10 μL were injected for TFC-LC/MS/MS analysis.
The TFC-HPLC system (Cohesive TX-1 Flux, Aria 2300 System) consisted of a loading pump, an eluting pump, and a CTC PAL autosampler (Cohesive Technologies, Franklin, Mass.). The columns used were Phenomenex Synergi Fusion-RP (C18, 2.0×50 mm, 4μ) (Phenomenex, Torrance, Calif.) as the analytical column and Turbo-Flow (TF) HTLC Cyclone column (0.5×50 mm) (Cohesive Technologies, Franklin, Mass.) as the extraction column for on-line sample processing. The mobile phase A consisted of 10 mM ammonium formate and 0.1% formic acid in water and mobile phase B consisted of 0.1% formic acid in AcCN. Turbo-Flow Chromatography was used to obtain a cleaner sample. A rapid gradient elution was used for analyte separation. The samples were injected onto the Turbo-Flow HTLC Cyclone column and analytes were separated from biological fluid components with using 100% H2O at 1.5 mL/min. The TF column was back flushed and analytes were back eluted from the TF to HPLC analytical column using a ramp to 60% B over 2 min and held there for 30 seconds at 0.3 mL/min to separate and to elute the analytes from the HPLC column into the mass spectrometer. Both columns were washed for an additional minute and then both columns were re-equilibrated at initial conditions.
The HPLC was interfaced to a Sciex API 4000 mass spectrometer (Applied Biosystems, Foster City, Calif.) and was equipped with a TurboIonspray ionization source. Ultra high purity nitrogen was used as the nebulizing and turbo-gas. The temperature of turbo-gas was set at 300° C. and the interface heater was set at 60° C. Selected Reaction Monitoring (SRM) was used for data acquisition. Multiple charged ion species, i.e. (M+2H)^2+ for Compound of SEQ ID NO: 158 were selected in Q1 and were collisionally dissociated with high purity nitrogen at a pressure of 3.5×10^−3 torr in Q2 to form specific product ions which were subsequently monitored in Q3. The ion transitions and voltages are summarized below (Table 4).
The standard curve concentrations, ranging from 1 to 1000 nM, were analyzed in duplicate. The curves were fitted with a linear regression weighted by reciprocal concentration […]. Quality control (QC) samples, prepared in blank matrix at the same concentrations as the standards were also analyzed in each analytical set. […]

[5] = molecular target: Full-length human glucagon-like peptide 1 receptor (human, UniProt P43220 24-463); assay: cell-based or functional assay
[6] = molecular target: T2, Mouse GLP-1 Receptor; assay: cell-based or functional assay

Row | Molecule | Mean Hill [1] | Mean EC50 (nM), stimulation of cAMP synthesis in CHO cells [5] [nM] | Mean Emax (%), stimulation of cAMP synthesis in CHO cells [5] [%] | Mean EC50 (nM), stimulation of cAMP synthesis in CHO cells [6] [nM] | Mean Emax (%), stimulation of cAMP synthesis in CHO cells [6] [%] | also measured
1 | CCc1cc(O)ccc1-c1ccc(C[C@H](NC(=O)[C@H](CC(=O)O)NC(=O)[C@H](CO)NC(=O)[C@@H](NC(=O)[C@](C)(Cc2ccccc2F)NC(=O)[C@@H](NC(=O)CNC(=O)[C@H](CCC(=O)O)NC(=O)[C@]2(C)CCCN2C(=O)C(Cc2c[nH]cn2)OC)[C@@H](C)O)[C@@H](C)O)C(=O)N[C@@H](Cc2ccc(-c3ccccc3C)nc2)C(N)=O)cc1 (single isomer, unassigned) [SEQ ID NO: 174] | 2.7 | – | – | – | – | Mean Hill [2]: 2.1
2 | CCc1cc(OC)ccc1-c1ccc(C[C@H](NC(=O)[C@H](CC(=O)O)NC(=O)[C@H](CO)NC(=O)[C@@H](NC(=O)C(C)(Cc2ccccc2F)NC(=O)[C@@H](NC(=O)CNC(=O)[C@H](CCC(=O)O)NC(=O)C2(C)CCCN2C(=O)[C@H](Cc2c[nH]cn2)NC(=O)OC)[C@@H](C)O)[C@@H](C)O)C(=O)N[C@@H](Cc2ccc(-c3ccccc3C)nc2)C(N)=O)cc1 (some centres unmarked) [SEQ ID NO: 139] (Moc-H[ξαMeP]EGT[ξαMePhe(2-F)]TSD[Bip(2'-Et-4'-OMe)][Ala(6-(2-MePh)pyridin-3-yl)]-NH2) | – | – | – | – | – | Potency in ob/ob mice: % AUC Reduction in Plasma Glucose in an IP Glucose Tolerance Test after SC Injection of Compound [3]: −63% (p < 0.01); Exposure in dogs (sc@67 μg/kg) [4]: 1603 nM·h
3 | CCc1cc(O)ccc1-c1ccc(C[C@H](NC(=O)[C@H](CC(=O)O)NC(=O)[C@H](Cc2c[nH]cn2)NC(=O)[C@@H](NC(=O)C(C)(Cc2ccccc2F)NC(=O)[C@@H](NC(=O)CNC(=O)[C@H](CCC(=O)O)NC(=O)C2(C)CCCN2C(=O)[C@H](Cc2c[nH]cn2)NC(=O)OC)[C@@H](C)O)[C@@H](C)O)C(=O)N[C@@H](Cc2ccc(-c3ccccc3C)nc2)C(N)=O)cc1 (some centres unmarked) [SEQ ID NO: 157] (Moc-H[ξαMeP]EGT[ξαMePhe(2-F)]THD[Phe(4-(2-Et-4-HO-Ph))][Ala(6-(2-MePh)pyridin-3-yl)]-NH2) | 1.9 | – | – | – | – | Emax ([1]; CHO, percent of maximal GLP-1 stimulated activity): 99.4%
4 | B1 | – | 0.018 | 101 | 0.191 | 101 | –
5 | B2 | – | 0.018 | 95.6 | 0.114 | 99.7 | –
